Measurements reported in US20230365642A1 (MEDICENNA THERAPEUTICS, published 2023).

Experiments:
[1] = biological target: T1, IL4R Type-II (IL4Rα chain with IL13Rα1), on cells (UniProt P24394 26-825; P78552 22-427, limits assumed); assay: cell-based or functional assay
T1 sequence (looked up) 1: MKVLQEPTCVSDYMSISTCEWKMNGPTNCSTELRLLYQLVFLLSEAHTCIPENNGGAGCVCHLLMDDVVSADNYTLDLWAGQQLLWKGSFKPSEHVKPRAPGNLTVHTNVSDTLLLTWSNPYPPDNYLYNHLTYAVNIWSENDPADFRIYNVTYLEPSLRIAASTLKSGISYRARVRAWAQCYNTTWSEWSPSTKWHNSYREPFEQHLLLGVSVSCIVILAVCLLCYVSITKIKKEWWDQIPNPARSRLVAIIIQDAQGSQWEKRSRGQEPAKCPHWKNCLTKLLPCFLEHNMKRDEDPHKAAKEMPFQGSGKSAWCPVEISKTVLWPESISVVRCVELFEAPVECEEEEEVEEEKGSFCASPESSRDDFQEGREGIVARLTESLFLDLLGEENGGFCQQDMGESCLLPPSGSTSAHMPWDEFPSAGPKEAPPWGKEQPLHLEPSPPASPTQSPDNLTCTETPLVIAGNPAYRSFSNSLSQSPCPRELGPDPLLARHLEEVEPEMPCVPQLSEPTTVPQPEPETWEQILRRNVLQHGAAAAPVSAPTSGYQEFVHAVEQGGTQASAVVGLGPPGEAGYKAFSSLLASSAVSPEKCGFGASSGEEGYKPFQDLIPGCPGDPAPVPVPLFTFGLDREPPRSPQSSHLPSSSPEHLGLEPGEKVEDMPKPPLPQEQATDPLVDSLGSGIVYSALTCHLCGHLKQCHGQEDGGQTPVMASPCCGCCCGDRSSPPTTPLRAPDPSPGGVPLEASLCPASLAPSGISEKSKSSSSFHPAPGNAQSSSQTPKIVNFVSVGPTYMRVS
T1 sequence (looked up) 2: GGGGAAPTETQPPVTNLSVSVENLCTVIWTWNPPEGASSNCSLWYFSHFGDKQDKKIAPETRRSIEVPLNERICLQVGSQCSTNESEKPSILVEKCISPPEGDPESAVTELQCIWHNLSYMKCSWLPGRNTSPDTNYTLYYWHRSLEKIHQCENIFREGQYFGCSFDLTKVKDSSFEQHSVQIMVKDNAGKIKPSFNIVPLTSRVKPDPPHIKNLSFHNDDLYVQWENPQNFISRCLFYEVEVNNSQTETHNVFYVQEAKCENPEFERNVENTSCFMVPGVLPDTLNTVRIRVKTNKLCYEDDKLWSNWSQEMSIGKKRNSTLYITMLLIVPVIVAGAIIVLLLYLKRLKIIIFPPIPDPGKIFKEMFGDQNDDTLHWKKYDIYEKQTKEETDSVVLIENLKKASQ

[2] = biological target: T1, IL4R Type-II (IL4Rα chain with …); assay: cell-based or functional assay; remark: listed apart in the source
[3] = biological target: T1, IL4R Type-II (IL4Rα chain with …); assay: cell-based or functional assay; remark: listed apart in the source
[4] = biological target: T2, IL13Rα Protein, Human, Recombinant, His Tag (human IL13Rα1) (human, UniProt P78552 22-343, limits assumed); assay: ELISA, receptor coated on plate, anti-human IgG Fc detection
T2 construct: also called hIL13Rα1; IL13Ra1; not shown: His tag
T2 sequence (looked up): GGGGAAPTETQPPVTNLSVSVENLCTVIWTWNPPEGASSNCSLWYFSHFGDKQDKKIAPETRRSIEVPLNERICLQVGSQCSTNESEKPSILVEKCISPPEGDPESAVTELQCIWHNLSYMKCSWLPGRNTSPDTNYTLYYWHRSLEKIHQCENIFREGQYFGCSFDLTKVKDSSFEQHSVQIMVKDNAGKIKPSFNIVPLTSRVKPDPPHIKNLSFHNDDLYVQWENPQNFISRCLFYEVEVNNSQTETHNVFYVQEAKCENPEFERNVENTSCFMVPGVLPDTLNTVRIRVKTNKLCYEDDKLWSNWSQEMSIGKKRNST

[5] = biological target: T3, IL13Rα1 Protein, Mouse, Recombinant, His Tag (mouse, UniProt O09030 26-340, limits assumed); assay: as above
T3 construct: also called mouse IL13Rα1; mIL13Rα1; not shown: His tag
T3 sequence (looked up): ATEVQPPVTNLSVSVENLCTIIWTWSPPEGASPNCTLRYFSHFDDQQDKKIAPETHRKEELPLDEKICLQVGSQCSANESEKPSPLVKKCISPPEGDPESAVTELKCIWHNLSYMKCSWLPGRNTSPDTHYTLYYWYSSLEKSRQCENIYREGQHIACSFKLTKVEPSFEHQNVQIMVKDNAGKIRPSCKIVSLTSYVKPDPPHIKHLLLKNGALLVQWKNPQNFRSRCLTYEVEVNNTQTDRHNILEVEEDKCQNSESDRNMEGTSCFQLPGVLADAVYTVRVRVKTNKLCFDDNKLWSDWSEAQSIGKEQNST

IL4 EC50 (nM); IL-4 competitive assay, HEK-Blue IL-4/IL-13 reporter cells [1]: 7.5 nM | IL 13 EC50 (nM); IL-13 competitive assay, HEK-Blue IL-4/IL-13 reporter cells [1]: 37.8 nM | IL-4 Mediated M2 polarization CD206 (IC50 nM), second donor [2]: 2.01 nM | IL-4 Mediated M2 polarization CD209 (IC50 nM), first donor [2]: 0.59 nM | IL-4 Mediated M2 polarization CD209 (IC50 nM), second donor [2]: 2.3 nM | IL-13 Mediated M2 polarization CD206 (IC50 nM), first donor [3]: 0.48 nM | IL-13 Mediated M2 polarization CD209 (IC50 nM), first donor [3]: 1.6 nM | IL-13 Mediated M2 polarization CD209 (IC50 nM), second donor [3]: 0.492 nM | binding result [4]: binds | binding result [5]: binds
B1: Fc4-MDNA413 (1:2) (Fc fusion)
chain: APPCPSCPAPEFLGGPSVFLFPPKPKDTLMISRTPEVTCVVVDVSQEDPEVQFNWYVDGVEVHNAKTKPREEQFNSTYRVVSVLTVLHQDWLNGKEYKCKVSNKGLPSSIEKTISKAKGQPREPQVYTLPPSQEEMTKNQVSLTCLVKGFYPSDIAVEWESNGQPENNYKTTPPVLDSDGSFFLYSRLTVDKSRWQEGNVFSCSVMHEALHNHYTQKSLSLSPGKGGGSGSPGPVPPSTAVRALIEELINITQNQKAPLCNGSMVWSINRTAGMYCAALESLINVSGCSAIEKTQDMLSGFCPHKVSAGQFSSLHVRSSKIEVAQFVKDLLFHLRTLFREGQFN
notes: also called Fc4-MDNA413^R39/Q111 (1:2)
